The results in this text go back to the supplement of paper PMC10567573.

To fix the notation:
B1: EPB41L3 (parent)
chain: SELGDYDPDECGSDYISEFRFAPN
B2: ANKRD9 (parent)
chain: LLEDMRASEAFHWDERGRAAAYSP
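Further: lentivirally expressed fusions sorted by FACS into six bins by GFP to DsRed ratio, PSI derived from sequencing read proportions per bin multiplied by bin number.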

The variants in the first data set derive from B1. Nature of the data set: protein stability index of a GFP-peptide fusion (GPS, HEK-293T) (PSI 1-6); higher = more stable. The following applies: c terminus: a fixed tail appended.
On to SELGDYDPDECGSDYISEFIFAPN, for which the protein stability index is 3.75.
The same measure, in the same setting: the result for SELGDYDPDECGSDYISRFRFAPN reads 2.11; that for SELGDYDPDECGSDYISTFRFAPN, 1.94.
Regarding SELGDYDPDECGSDYISVFRFAPN, the protein stability index was 2.06.
Still for that read-out and setting: the result for SELGDYDPDECGSDYISPFRFAPN reads 1.66; that for SELGDYDPDECGSDYISSFRFAPN, 2.15.
On the same count and under the same terms, in the case of SELGDYDPDECGSDYISWFRFAPN it was 1.99; in that of SELGDYDPDECGSDYISYFRFAPN, 1.67; in that of SELGDYDPDECGSDYISQFRFAPN, 1.53.
SELGDYDPDECGSDYISEPRFAPN: the protein stability index was found to be 4.97.
Still for that read-out and setting: in the case of SELGDYDPDECGSDYISEVRFAPN it was 4.38; in that of SELGDYDPDECGSDYISEKRFAPN, 4.83; in that of SELGDYDPDECGSDYISEDRFAPN, 5.28.
Take SELGDYDPDECGSDYISEGRFAPN: the protein stability index came out at 4.99.
Still for that read-out and setting: in the case of SELGDYDPDECGSDYISEYRFAPN it was 4.57; in that of SELGDYDPDECGSDYISEIRFAPN, 4.67; in that of SELGDYDPDECGSDYISENRFAPN, 5.06.
Same read-out and setting: in the case of SELGDYDPDECGSDYISEHRFAPN it was 4.85; in that of SELGDYDPDECGSDYISEERFAPN, 5.42.
On to SELGDYDPDECGSDYISEMRFAPN, for which the protein stability index came out at 3.91.
On to SELGDYDPDECGSDYISELRFAPN, for which the protein stability index was 3.84.
Same read-out and setting: in the case of SELGDYDPDECGSDYISEQRFAPN it was 5.04; in that of SELGDYDPDECGSDYISESRFAPN, 5.13; in that of SELGDYDPDECGSDYISERRFAPN, 4.78.
Turning to SELGDYDPDECGSDYISEARFAPN, the protein stability index was found to be 4.66.
SELGDYDPDECGSDYISECRFAPN: the protein stability index came out at 4.68.
The same measure, in the same setting: the result for SELGDYDPDECGSDYISEWRFAPN reads 2.61; that for SELGDYDPDECGSDYISETRFAPN, 4.97.

Variants of B2 are the subject of the next data set. The description is as above. The following applies: c terminus: a fixed tail appended.
Regarding LLEGMRASEAFHWDERGRAAAYSP, the protein stability index came out at 2.52.
Regarding LLEIMRASEAFHWDERGRAAAYSP, the protein stability index was 2.
Regarding LLECMRASEAFHWDERGRAAAYSP, the protein stability index was 2.44.
Same read-out and setting: in the case of LLENMRASEAFHWDERGRAAAYSP it was 2.5; in that of LLEMMRASEAFHWDERGRAAAYSP, 1.44; in that of LLEAMRASEAFHWDERGRAAAYSP, 2.36.
Still for that read-out and setting: in the case of LLEPMRASEAFHWDERGRAAAYSP it was 3.91; in that of LLEHMRASEAFHWDERGRAAAYSP, 2.69; in that of LLEFMRASEAFHWDERGRAAAYSP, 2.
For LLEEMRASEAFHWDERGRAAAYSP, the protein stability index is 2.03.
As for LLEQMRASEAFHWDERGRAAAYSP, the protein stability index is 2.14.
LLEKMRASEAFHWDERGRAAAYSP: the protein stability index is 2.37.
As for LLELMRASEAFHWDERGRAAAYSP, the protein stability index amounted to 1.64.
In the case of LREDMRASEAFHWDERGRAAAYSP, the protein stability index turned out to be 3.27.
Consider LWEDMRASEAFHWDERGRAAAYSP, for which the protein stability index amounted to 1.9.
For the variant LQEDMRASEAFHWDERGRAAAYSP, the protein stability index worked out at 3.66.
Same read-out and setting: the result for LSEDMRASEAFHWDERGRAAAYSP reads 3.94; that for LKEDMRASEAFHWDERGRAAAYSP, 3.25; that for LMEDMRASEAFHWDERGRAAAYSP, 2.67.
Still for that read-out and setting: the result for LPEDMRASEAFHWDERGRAAAYSP reads 4.37; that for LDEDMRASEAFHWDERGRAAAYSP, 3.98; that for LHEDMRASEAFHWDERGRAAAYSP, 4.13.
On the same count and under the same terms, in the case of LNEDMRASEAFHWDERGRAAAYSP it was 3.3; in that of LCEDMRASEAFHWDERGRAAAYSP, 4.06; in that of LVEDMRASEAFHWDERGRAAAYSP, 3.17.
Regarding LEEDMRASEAFHWDERGRAAAYSP, the protein stability index worked out at 4.52.
On the same count and under the same terms, in the case of LAEDMRASEAFHWDERGRAAAYSP it was 3.15.
With LGEDMRASEAFHWDERGRAAAYSP, the protein stability index amounted to 3.74.
On the same count and under the same terms, in the case of LYEDMRASEAFHWDERGRAAAYSP it was 1.71; in that of LFEDMRASEAFHWDERGRAAAYSP, 2.53.
On to LTEDMRASEAFHWDERGRAAAYSP, for which the protein stability index came to 3.88.
Still for that read-out and setting: the result for LIEDMRASEAFHWDERGRAAAYSP reads 4.67; that for LLDDMRASEAFHWDERGRAAAYSP, 1.92; that for LLIDMRASEAFHWDERGRAAAYSP, 1.85.
The same measure, in the same setting: in the case of LLYDMRASEAFHWDERGRAAAYSP it was 1.55.
On to LLPDMRASEAFHWDERGRAAAYSP, for which the protein stability index was determined as 4.09.
Still for that read-out and setting: in the case of LLFDMRASEAFHWDERGRAAAYSP it was 2.08; in that of LLNDMRASEAFHWDERGRAAAYSP, 1.32; in that of LLHDMRASEAFHWDERGRAAAYSP, 2.19.
For the variant LLADMRASEAFHWDERGRAAAYSP, the protein stability index came out at 2.72.
For the variant LLKDMRASEAFHWDERGRAAAYSP, the protein stability index was 2.49.
Same read-out and setting: in the case of LLCDMRASEAFHWDERGRAAAYSP it was 1.51; in that of LLTDMRASEAFHWDERGRAAAYSP, 2.31; in that of LLSDMRASEAFHWDERGRAAAYSP, 1.43.
The same measure, in the same setting: in the case of LLQDMRASEAFHWDERGRAAAYSP it was 2.38.
On the same count and under the same terms, the result for LLLDMRASEAFHWDERGRAAAYSP reads 3.26; that for LLMDMRASEAFHWDERGRAAAYSP, 1.15.
Regarding LLRDMRASEAFHWDERGRAAAYSP, the protein stability index came to 3.42.
Same read-out and setting: the result for PLEDMRASEAFHWDERGRAAAYSP reads 4.77; that for NLEDMRASEAFHWDERGRAAAYSP, 3.97; that for TLEDMRASEAFHWDERGRAAAYSP, 4.04.
Take VLEDMRASEAFHWDERGRAAAYSP: the protein stability index stood at 2.91.
As for FLEDMRASEAFHWDERGRAAAYSP, the protein stability index was 3.36.
Still for that read-out and setting: in the case of YLEDMRASEAFHWDERGRAAAYSP it was 3.54; in that of WLEDMRASEAFHWDERGRAAAYSP, 3.01.
In the case of KLEDMRASEAFHWDERGRAAAYSP, the protein stability index turned out to be 3.4.
Take HLEDMRASEAFHWDERGRAAAYSP: the protein stability index turned out to be 4.71.
Consider ALEDMRASEAFHWDERGRAAAYSP, for which the protein stability index was determined as 3.72.
Consider RLEDMRASEAFHWDERGRAAAYSP, for which the protein stability index stood at 3.93.
With ELEDMRASEAFHWDERGRAAAYSP, the protein stability index was 4.29.
On to SLEDMRASEAFHWDERGRAAAYSP, for which the protein stability index is 4.22.
As for CLEDMRASEAFHWDERGRAAAYSP, the protein stability index stood at 3.2.
On the same count and under the same terms, in the case of ILEDMRASEAFHWDERGRAAAYSP it was 2.44.
Take DLEDMRASEAFHWDERGRAAAYSP: the protein stability index came out at 4.18.
Still for that read-out and setting: the result for MLEDMRASEAFHWDERGRAAAYSP reads 2.52; that for QLEDMRASEAFHWDERGRAAAYSP, 4.37.
